Data: publication PMC9234707
Blank lines part the entries; values can stand above or below the substance they belong to.

Legend:
[1] = target: BMP10 (human (by the printed accession)) (UniProt O95393)
[2] = target: activin B (human (by the printed accession)) (UniProt P09529)
[3] = target: BMPR2 GBD-Fc (WT) (human) (UniProt Q13873); assay: SPR; BIAcore 3000; receptor-Fc (about 500 RU BMPR2-Fc WT or variants, 150 RU ACVR2A-Fc) captured on immobilised anti-human IgG (Fc), CM5 chip; single injections of 80 nM GF, single curve fits, averages of two independent injections; 25 °C; HBS/EPS (0.01 M Hepes, 0.5 M NaCl, 3 mM EDTA, 0.005% Tween 20, pH 7.4) with 0.1% bovine serum albumin; 50 μl/min; 1:1 binding model, KD = kd/ka
BMPR2 GBD-Fc (WT) (human), sequence (Q13873 whole entry): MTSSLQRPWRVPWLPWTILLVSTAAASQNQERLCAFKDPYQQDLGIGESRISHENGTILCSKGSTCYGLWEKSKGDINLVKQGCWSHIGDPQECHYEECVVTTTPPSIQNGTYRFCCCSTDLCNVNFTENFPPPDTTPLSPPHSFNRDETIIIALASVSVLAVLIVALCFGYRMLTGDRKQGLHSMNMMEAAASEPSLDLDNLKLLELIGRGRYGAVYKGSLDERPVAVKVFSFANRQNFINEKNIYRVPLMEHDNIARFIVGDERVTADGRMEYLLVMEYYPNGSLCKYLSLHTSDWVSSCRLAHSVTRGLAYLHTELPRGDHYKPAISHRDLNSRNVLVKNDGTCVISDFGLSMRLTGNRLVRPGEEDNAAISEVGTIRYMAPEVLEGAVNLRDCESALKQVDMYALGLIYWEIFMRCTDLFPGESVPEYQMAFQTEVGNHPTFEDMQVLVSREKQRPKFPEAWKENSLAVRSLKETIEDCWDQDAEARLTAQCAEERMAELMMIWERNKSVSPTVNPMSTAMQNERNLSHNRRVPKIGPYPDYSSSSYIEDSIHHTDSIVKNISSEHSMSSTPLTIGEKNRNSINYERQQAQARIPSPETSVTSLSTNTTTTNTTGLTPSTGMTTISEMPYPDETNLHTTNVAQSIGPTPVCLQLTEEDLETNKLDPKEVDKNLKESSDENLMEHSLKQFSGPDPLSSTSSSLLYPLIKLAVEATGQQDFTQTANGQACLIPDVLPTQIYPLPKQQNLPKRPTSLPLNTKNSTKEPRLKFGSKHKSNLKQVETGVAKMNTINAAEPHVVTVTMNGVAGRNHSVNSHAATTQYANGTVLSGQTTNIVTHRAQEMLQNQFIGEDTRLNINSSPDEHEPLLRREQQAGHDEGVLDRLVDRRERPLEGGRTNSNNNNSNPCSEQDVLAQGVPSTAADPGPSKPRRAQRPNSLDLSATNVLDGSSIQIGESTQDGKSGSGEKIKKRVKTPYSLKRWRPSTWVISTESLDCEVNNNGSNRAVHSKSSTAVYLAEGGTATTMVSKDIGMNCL

[4] = target: BMP10 (human (by the printed accession)) (UniProt O95393); remark: listed apart in the source
[5] = target: ACVR2A GBD-Fc (human) (UniProt P27037); assay: SPR; BIAcore 3000; receptor-Fc captured on immobilised anti-human IgG (Fc), CM5 chip; titration, global fit of 2.5, 5.0, 10.0, 20.0 and 40.0 nM GF injections; 25 °C; HBS/EPS (0.01 M Hepes, 0.5 M NaCl, 3 mM EDTA, 0.005% Tween 20, pH 7.4) with 0.1% bovine serum albumin; 50 μl/min; 1:1 binding model, KD = kd/ka
ACVR2A GBD-Fc (human), sequence (P27037 whole entry): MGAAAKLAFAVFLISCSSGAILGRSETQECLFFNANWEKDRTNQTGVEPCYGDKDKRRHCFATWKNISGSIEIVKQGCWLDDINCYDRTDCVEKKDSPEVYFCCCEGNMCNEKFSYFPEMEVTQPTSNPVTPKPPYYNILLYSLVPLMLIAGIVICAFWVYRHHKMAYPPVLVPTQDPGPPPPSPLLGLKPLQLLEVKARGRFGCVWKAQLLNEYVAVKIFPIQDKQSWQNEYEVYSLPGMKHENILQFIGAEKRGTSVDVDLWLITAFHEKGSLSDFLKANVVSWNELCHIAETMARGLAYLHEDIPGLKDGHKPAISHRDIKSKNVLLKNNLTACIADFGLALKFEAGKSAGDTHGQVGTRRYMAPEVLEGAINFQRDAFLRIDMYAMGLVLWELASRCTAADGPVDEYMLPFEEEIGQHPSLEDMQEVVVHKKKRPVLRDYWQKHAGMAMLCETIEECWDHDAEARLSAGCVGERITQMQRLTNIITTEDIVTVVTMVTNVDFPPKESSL

[6] = target: ACVR2A GBD-Fc (human) (UniProt P27037); assay: SPR; BIAcore 3000; receptor-Fc (about 500 RU BMPR2-Fc WT or variants, 150 RU ACVR2A-Fc) captured on immobilised anti-human IgG (Fc), CM5 chip; single injections of 80 nM GF, single curve fits, averages of two independent injections; 25 °C; HBS/EPS (0.01 M Hepes, 0.5 M NaCl, 3 mM EDTA, 0.005% Tween 20, pH 7.4) with 0.1% bovine serum albumin; 50 μl/min; 1:1 binding model, KD = kd/ka

BMP10 (human (by the printed accession)), sequence (O95393 317-424): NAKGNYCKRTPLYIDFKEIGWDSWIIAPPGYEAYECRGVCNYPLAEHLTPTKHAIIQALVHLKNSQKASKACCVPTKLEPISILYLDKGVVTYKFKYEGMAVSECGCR
BMP7, sequence (P18075 293-431): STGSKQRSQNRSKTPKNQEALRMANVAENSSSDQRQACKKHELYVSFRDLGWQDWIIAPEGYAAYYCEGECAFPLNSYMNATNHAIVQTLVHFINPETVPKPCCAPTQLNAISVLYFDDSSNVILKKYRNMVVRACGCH
activin B (human (by the printed accession)), sequence (P09529 293-407): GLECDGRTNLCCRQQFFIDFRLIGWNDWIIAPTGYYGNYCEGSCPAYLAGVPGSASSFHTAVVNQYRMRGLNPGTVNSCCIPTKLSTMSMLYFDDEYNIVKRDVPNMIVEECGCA

IC50 of inhibition of signalling by 5 nM BMP10 in stably transfected HEK293 BRE (SMAD1/5/8) luciferase reporter cells, 0-400 nM receptor-Fc [1]: 187 nM
IC50 of inhibition of signalling by 5 nM activin B in stably transfected HEK293 SBE (SMAD2/3) luciferase reporter cells, 0-400 nM receptor-Fc [2]: 14 nM
Substance: ACVR2A GBD-Fc (from UniProt P27037 20-120) (Fc fusion)

Kd [3]: 13 nM
koff [3]: 0.0071 s⁻¹
kon [3]: 520000 M⁻¹ s⁻¹
Substance: BMP7 (from UniProt P18075 293-431) (ligand)

IC50 of inhibition of signalling by 5 nM BMP10 in stably transfected HEK293 BRE (SMAD1/5/8) luciferase reporter cells, 0-400 nM receptor-Fc [1]: 35 nM
Substance: BMPR2 GBD-Fc (WT) (from UniProt Q13873 27-138) (Fc fusion)

IC50 of inhibition of signalling by 5 nM BMP10 in stably transfected HEK293 reporter cells [4]: 10 nM
Substance: BMPR2-Fc variant G47D (from UniProt Q13873 27-138) (Fc fusion)

IC50 of inhibition of signalling by 5 nM BMP10 in stably transfected HEK293 reporter cells [4]: 54 nM
Substance: BMPR2-Fc variant Q42R (from UniProt Q13873 27-138) (Fc fusion)

IC50 of inhibition of signalling by 5 nM BMP10 in stably transfected HEK293 reporter cells [4]: 10 nM
Substance: BMPR2-Fc variant Q92H (from UniProt Q13873 27-138) (Fc fusion)

IC50 of inhibition of signalling by 5 nM BMP10 in stably transfected HEK293 reporter cells [4]: 7 nM
Substance: BMPR2-Fc variant S107P (from UniProt Q13873 27-138) (Fc fusion)

Kd [5]: 0.018 nM
koff [5]: 1.2e-05 s⁻¹
kon [5]: 600000 M⁻¹ s⁻¹
Kd [6]: 0.09 nM
koff [6]: 0.00019 s⁻¹
kon [6]: 2.1e+06 M⁻¹ s⁻¹
Kd [3]: 9.6 nM
koff [3]: 0.0036 s⁻¹
kon [3]: 370000 M⁻¹ s⁻¹
Substance: activin A (from UniProt P08476 311-426) (ligand)
